Experimental data: PMC6327110, “Species-Specific Functional Regions of the Green Alga Gamete Fusion Protein HAP2 Revealed by Structural Studies” (Structure(London, England:1993), 2019)
Where “and” joins values, the source holds several entries; their conditions need not be identical. Identical values can stand only once.

Target: the molecule itself
Experiment: crystal structure; crystals grown from the HAP2-scFv A20 complex, sitting drop, 293K, 0.2M LiSO4, 0.1M Tris-HCl pH 8.5, 25% w/v PEG 5000 MME; space group P6_(3)22, 2.6 Å; no density for the scFv

B1: Chlamydomonas reinhardtii HAP2 ectodomain (residues 23-592) (domain or fragment)
chain: EVIASGRLEKCVVDGVTEELDCQEKVVVTLTVGNGQSLQTEALEFSLSCLNSPDGRCPCSCSAADPTCACRDLAAPLRVSLTKSPLWASYPLQYLSSFNWKPLEVILRPSNKVCKDGDWEDSPTCGWFSQGGVRVADSQGFCCECSSSQVWDDTFGSSKERTRANLDCDFWSDPLDILIGRKPVSAHCLTFDPQWYSGYELGAASLQFEIAITVEVPTAPSPTTATTSATPRTNNSSSANSTNSTNSPAPQFLSPPAPSTREVLHLGPSVPLASSASRLLSAKLLGDLAMYTQLPAISNQVLMVPQPPAAAAATGSPLDATLATNRSAWMLLDKTMLSMDGLACDKVGTGFSAFRYQPSGCGRAPQACLSGQLKDLWEADLARIADGRVPLYMITRFTGGSDTTLQSFSGGPLSFALPVTSHSQSLVTLSVAADGVRLVTNRSPGKITGAAVCRFAGTSCGGFEAVAARGYIYVNITNTGRLDSDYTLTVSNCSSNVRPIEARTLAVRAGSAASLDPPMELYVEDQAAAAARTCTVSLYDSVGAVTDSLTLSFYTNATQLVVKPSGGYNGDDDDK
modifications: N-linked glycan attached to Asn578; further N-linked glycans marked in Figure 1C
notes: HAP2, Chlamydomonas reinhardtii, Uniprot A4GRC6, soluble C-terminally truncated ectodomain, residues 23-592, ending at G592; enterokinase cleavage site immediately downstream of HAP2 G592, before the double strep-tag; Secreted from the vector pMT/BiP/TwinStrep; The strep tag was removed with enterokinase; Trimer in the crystal; trimers, hexamers and remaining monomers in solution; also called …
stoichiometry N: 3 and 6
